Source: US20240409617A1 (Dana-Farber, published 2024)

Molecular target: Human FcRn, biotinylated (human, UniProt P55899 24-297; P61769 21-119)

B1: Ab2-7 scFv-Fc (Fc fusion)
chain 1: QVTLKESGPTRVKPTQTLTLTCTFSGFSLSTTGVGVGWIRQPPGKALEWLALIYWNDDKRYSPSLKSRLTITKDTSKNQVVLTMTNMDPVDTATYYCARISGSGYFYPFDIWGQGTTVTVSS
chain 2: NFMLTQPHSVSESPGKTVTISCTRSSGSIASNYVQWYQQRPGSSPTTVIYEDNQRPSGVPDRFSGSIDSSSNSASLTISGLKAEDEADYYCQSYDSSSLWVFGGGTKLTVL
- Kd: 11.7 nM
- koff: 0.00198 s⁻¹
- kon: 169000 M⁻¹ s⁻¹
